Consider two molecules from article PMC3668366.

One series concerns the target CEBPB B-ZIP domain (mouse, UniProt P28033 222-285). The series can be described thus: EMSA.
Series [1] addresses CEBPB B-ZIP domain;ATF4 B-ZIP domain (mouse;mouse, UniProt P28033;Q06507 222-285;276-339, |). The series can be described thus: EMSA.

Chain of CEBPB B-ZIP domain;ATF4 B-ZIP domain (P28033 222-285, chain 1 of 2): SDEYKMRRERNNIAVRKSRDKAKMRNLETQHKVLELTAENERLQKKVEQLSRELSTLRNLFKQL
Chain of CEBPB B-ZIP domain;ATF4 B-ZIP domain (Q06507 276-339, chain 2 of 2): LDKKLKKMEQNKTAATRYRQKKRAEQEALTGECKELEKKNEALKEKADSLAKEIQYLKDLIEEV
Chain of CEBPB B-ZIP domain (P28033 222-285): as the sequence (P28033 222-285, chain 1 of 2) above

B1: 10-mer-A (M) (dsDNA)
DNA 1: GTCAGTCAGATTGCGCAATATAGGTCAG
DNA 2: CTGACCTATATTGCGCAATCTGACTGAC
modifications: 5mC at position 14 of each strand
As to B1, the “apparent K (half saturation)” value with CEBPB B-ZIP domain is roughly 5 nM.

B2: Hetero (CGAT|GCAA) unmethylated (dsDNA)
DNA 1: GTCAGTCAGACGATGCAATATAGGTCAG
DNA 2: CTGACCTATATTGCATCGTCTGACTGAC
On to B2, for which the binding signal in series [1] is 10 fold weaker than methylated N2.
